Measured values from publication PMC3449402.

Molecular target: MAb<EGFR> (human)
Experiment: SPR

A Kd of 120 nM was found for “soluble construct of the FcγRIIIa ectodomain (from UniProt P08637 17-208) (receptor)” in this work.
